Measured values: paper PMC3627602

Biological target: Q338H MBP–MUTYH (human)
Assay: pull-down

Binder | percent reduction of HUS1 associated, against wild-type MUTYH | percent reduction of RAD9 associated, against wild-type MUTYH | percent reduction of RAD9 bound, against wild-type MUTYH
RAD9:RAD1:HUS1 (9–1–1) complex, endogenous in HeLa nuclear extract (complex) chain 1: MKCLVTGGNVKVLGKAVHSLSRIGDELYLEPLEDGLSLRTVNSSRSAYACFLFAPLFFQQYQAATPGQDLLRCKILMKSFLSVFRSLAMLEKTVEKCCISLNGRSSRLVVQLHCKFGVRKTHNLSFQDCESLQAVFDPASCPHMLRAPARVLGEAVLPFSPALAEVTLGIGRGRRVILRSYHEEEADSTAKAMVTEMCLGEEDFQQLQAQEGVAITFCLKEFRGLLSFAESANLNLSIHFDAPGRPAIFTIKDSLLDGHFVLATLSDTDSHSQDLGSPERHQPVPQLQAHSTPHPDDFANDDIDSYMIAMETTIGNEGSRVLPSISLSPGPQPPKSPGPHSEEEDEAEPSTVPGTPPPKKFRSLFFGSILAPVRSPQGPSPVLAEDSEGEG chain 2: MPLLTQQIQDEDDQYSLVASLDNVRNLSTILKAIHFREHATCFATKNGIKVTVENAKCVQANAFIQAGIFQEFKVQEESVTFRINLTVLLDCLSIFGSSPMPGTLTALRMCYQGYGYPLMLFLEEGGVVTVCKINTQEPEETLDFDFCSTNVINKIILQSEGLREAFSELDMTSEVLQITMSPDKPYFRLSTFGNAGSSHLDYPKDSDLMEAFHCNQTQVNRYKISLLKPSTKALVLSCKVSIRTDNRGFLSLQYMIRNEDGQICFVEYYCCPDEEVPESES chain 3: MKFRAKIVDGACLNHFTRISNMIAKLAKTCTLRISPDKLNFILCDKLANGGVSMWCELEQENFFNEFQMEGVSAENNEIYLELTSENLSRALKTAQNARALKIKLTNKHFPCLTVSVELLSMSSSSRIVTHDIPIKVIPRKLWKDLQEPVVPDPDVSIYLPVLKTMKSVVEKMKNISNHLVIEANLDGELNLKIETELVCVTTHFKDLGNPPLASESTHEDRNVEHMAEVHIDIRKLLQFLAGQQVNPTKALCNIVNNKMVHFDLLHEDVSLQYFIPALS | 80% | > 50% | –
purified recombinant RAD9:RAD1:HUS1 (9–1–1) complex (complex) chain 1: MKCLVTGGNVKVLGKAVHSLSRIGDELYLEPLEDGLSLRTVNSSRSAYACFLFAPLFFQQYQAATPGQDLLRCKILMKSFLSVFRSLAMLEKTVEKCCISLNGRSSRLVVQLHCKFGVRKTHNLSFQDCESLQAVFDPASCPHMLRAPARVLGEAVLPFSPALAEVTLGIGRGRRVILRSYHEEEADSTAKAMVTEMCLGEEDFQQLQAQEGVAITFCLKEFRGLLSFAESANLNLSIHFDAPGRPAIFTIKDSLLDGHFVLATLSDTDSHSQDLGSPERHQPVPQLQAHSTPHPDDFANDDIDSYMIAMETTIGNEGSRVLPSISLSPGPQPPKSPGPHSEEEDEAEPSTVPGTPPPKKFRSLFFGSILAPVRSPQGPSPVLAEDSEGEG chain 2: MPLLTQQIQDEDDQYSLVASLDNVRNLSTILKAIHFREHATCFATKNGIKVTVENAKCVQANAFIQAGIFQEFKVQEESVTFRINLTVLLDCLSIFGSSPMPGTLTALRMCYQGYGYPLMLFLEEGGVVTVCKINTQEPEETLDFDFCSTNVINKIILQSEGLREAFSELDMTSEVLQITMSPDKPYFRLSTFGNAGSSHLDYPKDSDLMEAFHCNQTQVNRYKISLLKPSTKALVLSCKVSIRTDNRGFLSLQYMIRNEDGQICFVEYYCCPDEEVPESES chain 3: MKFRAKIVDGACLNHFTRISNMIAKLAKTCTLRISPDKLNFILCDKLANGGVSMWCELEQENFFNEFQMEGVSAENNEIYLELTSENLSRALKTAQNARALKIKLTNKHFPCLTVSVELLSMSSSSRIVTHDIPIKVIPRKLWKDLQEPVVPDPDVSIYLPVLKTMKSVVEKMKNISNHLVIEANLDGELNLKIETELVCVTTHFKDLGNPPLASESTHEDRNVEHMAEVHIDIRKLLQFLAGQQVNPTKALCNIVNNKMVHFDLLHEDVSLQYFIPALS | – | – | 50%
